T1: recombinant human NKp30 extracellular domain, his-tagged (human, UniProt O14931 19-135)
T1 construct: BLI used human NKp30 bought from Abcam (his-tagged ECD); also called rh NKp30 ECD; human NKp30 (Abcam); not shown: his tag
T1 sequence: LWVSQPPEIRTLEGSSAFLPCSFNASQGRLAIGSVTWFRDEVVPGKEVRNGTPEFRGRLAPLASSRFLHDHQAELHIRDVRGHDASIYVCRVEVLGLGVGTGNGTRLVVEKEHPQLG


Columns and labels:
[1] = biological target: recombinant human NKp30 extracellular domain, his-tagged (human) (UniProt O14931); experiment: BLI, SEEDbody on anti-human Fc sensors, soluble NKp30, 1:1 fit
[2] = biological target: NKp30 on human NK cells (human) (UniProt O14931); experiment: cell-based or functional assay
[3] = biological target: T1, recombinant human NKp30 extracellular …; experiment: BLI as in Example 1
[4] = biological target: T1, recombinant human NKp30 extracellular …; experiment: BLI as in Example 1, maximum binding capacity

Row | Binder | Kd [1] [nM] | koff [1] [s⁻¹] | kon [1] [M⁻¹ s⁻¹] | EC50 (nM), MNC based killing of A431 cells, E:T 80:1 [2] [nM] | Max. Killing (% Lysis), MNC based killing of A431 cells, E:T 80:1 [2] [% Lysis] | Kd [3] [nM] | Emax (nm) [4] [nm] | Max. IFNγ release (pg/ml), NK cells with A431 cells [2] [pg/mL] | Max. TNFα release (pg/ml), NK cells with A431 cells [2] [pg/mL]
1 | VHH9 SEEDbody eff- (bispecific antibody, part only; not given: silenced SEED Fc and cetuximab Fab, V domains shown, not shown: another chain or arm of the molecule; a dimerising Fc or GST) VHH: DVQLQESGGGLVQAGGSLRLSCAASGRGGASYAMGWFRQAPGKEREFVAAISWTGDTTYNVDSVKGRFTISSDNAKNPVYLDMSSLKPEDTAVYYCAAAHWTRVVAKGAMADEKKYEYWGQGTQVTVSS | 4.99 | 0.00187 | 376000 | 0.0161 | 53 |  |  |  | 
2 | VHH2 (parental, as tested in Example 9) (VHH, expressed and measured by BLI 'as described in Experiment 1' (there: bispecific SEEDbody on anti-human Fc sensors)) VHH: DVQLQESGGGLVQAGGSLRLSCAVSGQTWTNYHIGWFRQAPGKARESVASIEWGGRGTYATDSVKGRFTISRDNAKNTVYLQMNSLKPEDTAVYYCAAQSSSRSPLESNYDYWGQGTQVTVSS |  |  |  |  |  | 2.88 | 0.17 |  | 
3 | VHH2.3 (humanized) (VHH, expressed and measured by BLI 'as described in Experiment 1' (there: bispecific SEEDbody on anti-human Fc sensors)) VHH: EVQLVESGGGVVQPGGSLRLSCAVSGQTWTNYHIGWFRQAPGKARESVASIEWGGRGTYATDSVKGRFTISRDNAKNTLYLQMNSLRAEDTAVYYCAAQSSSRSPLESNYDYWGQGTLVTVSS |  |  |  |  |  | 9.97 | 0.13 |  | 
4 | VHH2.11 (humanized) (VHH, expressed and measured by BLI 'as described in Experiment 1' (there: bispecific SEEDbody on anti-human Fc sensors)) VHH: EVQLVESGGGVVQPGGSLRLSCAASGQTWTNYHIGWFRQAPGKGLESVASIEWGGRGTYATDSVKGRFTISRDNAKNTVYLQMNSLRAEDTAVYYCAAQSSSRSPLESNYDYWGQGTLVTVSS |  |  |  |  |  | 4.7 | 0.16 |  | 
5 | VHH2.7 (humanized) (VHH, expressed and measured by BLI 'as described in Experiment 1' (there: bispecific SEEDbody on anti-human Fc sensors)) VHH: EVQLVESGGGVVQPGGSLRLSCAVSGQTWTNYHIGWFRQAPGKGLESVASIEWGGRGTYATDSVKGRFTISRDNAKNTLYLQMNSLRAEDTAVYYCAAQSSSRSPLESNYDYWGQGTLVTVSS |  |  |  |  |  | 9.76 | 0.1 |  | 
6 | VHH2.6 (humanized) (VHH, expressed and measured by BLI 'as described in Experiment 1' (there: bispecific SEEDbody on anti-human Fc sensors)) VHH: EVQLVESGGGVVQPGGSLRLSCAVSGQTWTNYHIGWVRQAPGKGLESVASIEWGGRGTYATDSVKGRFTISRDNAKNTVYLQMNSLRAEDTAVYYCAAQSSSRSPLESNYDYWGQGTLVTVSS |  |  |  |  |  | 27.6 | 0.07 |  | 
7 | VHH2.2 (humanized) (VHH, expressed and measured by BLI 'as described in Experiment 1' (there: bispecific SEEDbody on anti-human Fc sensors)) VHH: EVQLVESGGGVVQPGGSLRLSCAVSGQTWTNYHIGWFRQAPGKARESVASIEWGGRGTYATDSVKGRFTISRDNAKNTVYLQMNSLRAEDTAVYYCAAQSSSRSPLESNYDYWGQGTLVTVSS |  |  |  |  |  | 2.1 | 0.15 |  | 
8 | VHH2.5 (humanized) (VHH, expressed and measured by BLI 'as described in Experiment 1' (there: bispecific SEEDbody on anti-human Fc sensors)) VHH: EVQLVESGGGVVQPGGSLRLSCAVSGQTWTNYHIGWFRQAPGKGLESVASIEWGGRGTYATDSVKGRFTISRDNAKNTVYLQMNSLRAEDTAVYYCAAQSSSRSPLESNYDYWGQGTLVTVSS |  |  |  |  |  | 2.92 | 0.11 |  | 
9 | VHH2.1 (humanized) (VHH, expressed and measured by BLI 'as described in Experiment 1' (there: bispecific SEEDbody on anti-human Fc sensors)) VHH: EVQLVESGGGVVQAGGSLRLSCAVSGQTWTNYHIGWFRQAPGKARESVASIEWGGRGTYATDSVKGRFTISRDNAKNTVYLQMNSLRAEDTAVYYCAAQSSSRSPLESNYDYWGQGTLVTVSS |  |  |  |  |  | 2.91 | 0.18 |  | 
10 | VHH2.8 (humanized) (VHH, expressed and measured by BLI 'as described in Experiment 1' (there: bispecific SEEDbody on anti-human Fc sensors)) VHH: EVQLVESGGGVVQPGGSLRLSCAVSGQTWTNYHIGWFRQAPGKGLEWVASIEWGGRGTYATDSVKGRFTISRDNAKNTLYLQMNSLRAEDTAVYYCAAQSSSRSPLESNYDYWGQGTLVTVSS |  |  |  |  |  | 6.61 | 0.1 |  | 
11 | VHH15 SEEDbody eff- (bispecific antibody, part only; not given: silenced SEED Fc and cetuximab Fab, V domains shown, not shown: another chain or arm of the molecule; a dimerising Fc or GST; small tags and cut ends) VHH: DVQLQESGGGLVQAGGSLRLSCAVSGSTFRLNVMGWYRQAPGKLRDLVAGITADGGVTNYADSVKGRFIISRDNAKNTVYLQMNSLKPEDTAIYYCNTAPANWGSWGQGTQVTVSS | < 0.001 | < 1e-07 | 440000 | 0.0013 | 50 |  |  |  | 
12 | VHH10 SEEDbody eff- (bispecific antibody, part only; not given: silenced SEED Fc and cetuximab Fab, V domains shown, not shown: another chain or arm of the molecule; a dimerising Fc or GST; small tags and cut ends) VHH: DVQLQESGGGSVQAGGSLRLSCAASGRTFSSNFMGWFRQAPNKDREFVAAIHWSGGSRAYADSVKGRFTISRDNTKDTVYLLVNSLKLEDTAVYYCAAEISWQTTGWTNLGSWGQGTQVTVSS | 0.253 | 8.75e-05 | 346000 | 0.0146 | 51 |  |  |  | 
13 | VHH12 SEEDbody eff- (bispecific antibody, part only; not given: silenced SEED Fc and cetuximab Fab, V domains shown, not shown: another chain or arm of the molecule; a dimerising Fc or GST; small tags and cut ends) VHH: DVQLQESGGGLVQAGGSLRLSCAASGRTFSSDFMGWFRQAPGKEREFVAAIHWSGGSRSYADSVKGRFTISRDNAKDTVYLLMNSLKLEDTAVYYCAAEIRWQTTGWANLGSWGQGTQVTVSS | 0.982 | 0.000898 | 914000 | 0.00207 | 49 |  |  |  | 
14 | VHH6 SEEDbody eff- (bispecific antibody, part only; not given: silenced SEED Fc and cetuximab Fab, V domains shown, not shown: another chain or arm of the molecule; a dimerising Fc or GST; small tags and cut ends) VHH: DVQLQESGGGLVQTGGSLRLSCAASGLPFSKYAIAWFRQAPGKESEFLVVVSWSGDKFYQDNMKGRCTISRDNAKNTAYLQINSLQPEDTAVYYCAASGSYPVTDRYFYNFWGQGTQVTVSS | 292 | 0.129 | 442000 | 1.43 | 42 |  |  |  | 
15 | VHH16 SEEDbody eff- (bispecific antibody, part only; not given: silenced SEED Fc and cetuximab Fab, V domains shown, not shown: another chain or arm of the molecule; a dimerising Fc or GST; small tags and cut ends) VHH: DVQLQESGGGLVQPGGSLRLSCTASGSIFSSLTMAWWRQAPGKQRELVAGITTDGSTDYADSVKGRFTISRDNAKNTVYLQMDSLKPEDTAVYYCNKSPYYDPTDYDSWGQGTQVTVSS | 0.139 | 9.28e-05 | 666000 | 0.00128 | 50 |  |  | 515 | 114
16 | VHH7 SEEDbody eff- (bispecific antibody, part only; not given: silenced SEED Fc and cetuximab Fab, V domains shown, not shown: another chain or arm of the molecule; a dimerising Fc or GST; small tags and cut ends) VHH: DVQLQESGGGLAQPGGSLRLSCAASGFTFSSYDMGWYRQVPGKECELVAAIFSAGGSTIYADSVKGRFTISRDNAKNTVFLQMNSLKPEDTAVYYCNKAPPFTTIQPTCVMIDTQLGAWGQGTQVTVSS | 52.4 | 0.00352 | 67200 | 0.0433 | 49 |  |  |  | 
17 | VHH8 SEEDbody eff- (bispecific antibody, part only; not given: silenced SEED Fc and cetuximab Fab, V domains shown, not shown: another chain or arm of the molecule; a dimerising Fc or GST; small tags and cut ends) VHH: DVQLQESGGGLAQPGGSLRLSCAASGFTFSSYDMGWYRQAPGKECELVAAIFSADGSTIYADSVKGRFTISSDNAKNTVFLQMNSLKPEDTAVYYCNKAPPFTTIQPMCVMIDTQLGAWGQGTQVTVSS | 0.322 | 0.000134 | 416000 | 0.00899 | 50 |  |  | 595 | 109
18 | VHH5 SEEDbody eff- (bispecific antibody, part only; not given: silenced SEED Fc and cetuximab Fab, V domains shown, not shown: another chain or arm of the molecule; a dimerising Fc or GST; small tags and cut ends) VHH: DVQLQESGGGLVQPGESLRLSCLVSGVTYHFYDITWFRQAPGLEREGVSCISYASGSTKFADSVKGRFTISRDNAKNAVYLQMNSLKPEDTAVYFCATQGSGSCSDFMSADSVLSWGQGTQVTVSS | 0.289 | 0.000186 | 643000 | 0.00286 | 56 |  |  | 635 | 119
19 | VHH4 SEEDbody eff- (bispecific antibody, part only; not given: silenced SEED Fc and cetuximab Fab, V domains shown, not shown: another chain or arm of the molecule; a dimerising Fc or GST; small tags and cut ends) VHH: DVQLQESGGGLVQPGESLRLSCLVSGVTYHFYDITWFRQAPGLEREGVSCISYASGSTKFADSVKGRFTISRDNAKNAVYLQMNSLKPEDTAVYFCAMQGSGSCSDFMSADSVLSWGQGTQVTVSS | 2.57 | 0.000218 | 84800 | 0.00592 | 55 |  |  | 560 | 129
20 | VHH3 SEEDbody eff- (bispecific antibody, part only; not given: silenced SEED Fc and cetuximab Fab, V domains shown, not shown: another chain or arm of the molecule; a dimerising Fc or GST; small tags and cut ends) VHH: DVQLQESGGGLVQPGESLKLSCLVSGVTYHFYDITWFRQAPGLEREGVSCISYASGTTKFADSVKGRFTISRDNAKNAVYLEMNSLKPEDTAVYFCATQGSGSCSDFMSAGSVLSWGQGTQVTVSS | 0.281 | 0.00017 | 604000 | 0.00284 | 53 |  |  |  | 
21 | VHH11 SEEDbody eff- (bispecific antibody, part only; not given: silenced SEED Fc and cetuximab Fab, V domains shown, not shown: another chain or arm of the molecule; a dimerising Fc or GST; small tags and cut ends) VHH: DVQLQESGGGLVQAGGSLRLSCAASGRTFSSDFMGWFRQAPGKEREFVAAIHWSGGSTSYADSVKGRFTISRDNAKDTVYLLMNSLKLEDTAVYYCAAEIRWLTTGWANLGSWGQGTQVTVSS | 1.02 | 0.000415 | 405000 | 0.0111 | 50 |  |  |  | 
22 | VHH13 SEEDbody eff- (bispecific antibody, part only; not given: silenced SEED Fc and cetuximab Fab, V domains shown, not shown: another chain or arm of the molecule; a dimerising Fc or GST; small tags and cut ends) VHH: DVQLQESGGGLAQPGGPLRLSCAASGRTFTSDFMGWFRQAPGKEREFVAAIHWSGGSRSYADSVKGRFTISRDNAKDTVYLLMNSLKLEDTAVYYCAAEIRWQTAGWVNLGSWGQGTQVTVSS | 0.211 | 0.000162 | 766000 | 0.00241 | 51 |  |  |  | 
23 | VHH14 SEEDbody eff- (bispecific antibody, part only; not given: silenced SEED Fc and cetuximab Fab, V domains shown, not shown: another chain or arm of the molecule; a dimerising Fc or GST; small tags and cut ends) VHH: DVQLQESGGGLVQPGGSLRLSCEASGVTFNFYSMTWYRQAPGKERELVADITSEGRTEYAHSVKGRFIISRDDFGTMVYLQMNSLKPEDTAVYYCYTGGSWGQGTQVTVSS | 0.31 | 0.000144 | 464000 | 0.00144 | 51 |  |  |  | 

— US20240287177A1 (Merck KGaA, published 2024)
